According to US20140087995A1 (published 2014):
Numbered stars: 1 amine (or outer) side, 2 acyl side, 3 side chain; on linkers, the order of the positions; unused ones are H or OH. Bridge positions count the residues as written; N and C are the ends. Side chains are listed from the residue outwards. Ends that are not written are not given here. * marks the point of attachment. C20 diacid = O=C(O)CCCCCCCCCCCCCCCCCCC(=O)*; γGlu = O=C(O)[C@H](CCC(=O)[*:2])N[*:1]; AEEA = NCCOCCOCC(=O)O

T1: human calcitonin receptor (human, UniProt P30988 25-474)
T1 construct: whole, on cells; Membranes of BHK cells stably transfected with the human calcitonin receptor (Assay VII); also called hCTR; hCT
T1 sequence (looked up): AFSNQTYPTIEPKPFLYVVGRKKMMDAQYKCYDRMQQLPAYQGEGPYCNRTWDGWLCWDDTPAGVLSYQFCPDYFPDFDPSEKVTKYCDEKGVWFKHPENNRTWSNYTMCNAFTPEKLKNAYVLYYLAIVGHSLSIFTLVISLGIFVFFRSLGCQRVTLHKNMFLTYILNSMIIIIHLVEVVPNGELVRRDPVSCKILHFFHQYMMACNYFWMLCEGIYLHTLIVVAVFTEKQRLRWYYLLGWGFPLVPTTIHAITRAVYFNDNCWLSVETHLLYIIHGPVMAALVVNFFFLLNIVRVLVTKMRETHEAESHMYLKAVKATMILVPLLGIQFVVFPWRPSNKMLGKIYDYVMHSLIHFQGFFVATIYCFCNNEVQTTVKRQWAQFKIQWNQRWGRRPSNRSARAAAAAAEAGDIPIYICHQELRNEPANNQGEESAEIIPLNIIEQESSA

T2: human amylin receptor (amylin 3(a) receptor: human calcitonin receptor with RAMP-3) (human, UniProt P30988 25-474; O60896 24-148, limits assumed)
T2 construct: whole, on cells; Whole cells in the luciferase assay (Assay II a); also called hAmylin-R; hAmylinR
T2 sequence (looked up) 1: T1 sequence (looked up)
T2 sequence (looked up) 2: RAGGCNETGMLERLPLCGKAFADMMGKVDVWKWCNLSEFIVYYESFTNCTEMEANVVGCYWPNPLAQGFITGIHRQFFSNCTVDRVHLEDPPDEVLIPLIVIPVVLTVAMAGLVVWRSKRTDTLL

T3: human calcitonin receptor (human, UniProt P30988 25-474)
T3 sequence (looked up): T1 sequence (looked up)

B1: N^ε1-[(4S)-4-carboxy-4-(19-carboxynonadecanoylamino)butanoyl]-[Glu14,Arg17,Pro21,Pro27,Pro34,Glu35]-h-amylin (peptide)
peptide: K([γGlu-C20 diacid])CNTATCATQRLAEFLRHSSPNFGAIPSSTNVGPETY-NH2
modifications: disulfide 2-7; N-terminus assumed
SMILES: CC[C@H](C)[C@H](NC(=O)[C@H](C)NC(=O)CNC(=O)[C@H](Cc1ccccc1)NC(=O)[C@H](CC(N)=O)NC(=O)[C@@H]1CCCN1C(=O)[C@H](CO)NC(=O)[C@H](CO)NC(=O)[C@H](Cc1c[nH]cn1)NC(=O)[C@H](CCCNC(=N)N)NC(=O)[C@H](CC(C)C)NC(=O)[C@H](Cc1ccccc1)NC(=O)[C@H](CCC(=O)O)NC(=O)[C@H](C)NC(=O)[C@H](CC(C)C)NC(=O)[C@H](CCCNC(=N)N)NC(=O)[C@H](CCC(N)=O)NC(=O)[C@@H](NC(=O)[C@H](C)NC(=O)[C@@H]1CSSC[C@H](NC(=O)[C@@H](N)CCCCNC(=O)CC[C@H](NC(=O)CCCCCCCCCCCCCCCCCCC(=O)O)C(=O)O)C(=O)N[C@@H](CC(N)=O)C(=O)N[C@@H]([C@@H](C)O)C(=O)N[C@@H](C)C(=O)N[C@@H]([C@@H](C)O)C(=O)N1)[C@@H](C)O)C(=O)N1CCC[C@H]1C(=O)N[C@@H](CO)C(=O)N[C@@H](CO)C(=O)N[C@H](C(=O)N[C@@H](CC(N)=O)C(=O)N[C@H](C(=O)NCC(=O)N1CCC[C@H]1C(=O)N[C@@H](CCC(=O)O)C(=O)N[C@H](C(=O)N[C@@H](Cc1ccc(O)cc1)C(N)=O)[C@@H](C)O)C(C)C)[C@@H](C)O
B2: N^ε1-[2-[2-[2-[[(4S)-4-carboxy-4-(19-carboxynonadecanoylamino)butanoyl]amino]ethoxy]ethoxy]acetyl]-[Arg17,Pro21,Pro27,Arg35]-h-amylin (peptide)
peptide: K([AEEA-γGlu-C20 diacid])CNTATCATQRLANFLRHSSPNFGAIPSSTNVGSRTY-NH2
modifications: disulfide 2-7; N-terminus assumed
SMILES: CC[C@H](C)[C@H](NC(=O)[C@H](C)NC(=O)CNC(=O)[C@H](Cc1ccccc1)NC(=O)[C@H](CC(N)=O)NC(=O)[C@@H]1CCCN1C(=O)[C@H](CO)NC(=O)[C@H](CO)NC(=O)[C@H](Cc1c[nH]cn1)NC(=O)[C@H](CCCNC(=N)N)NC(=O)[C@H](CC(C)C)NC(=O)[C@H](Cc1ccccc1)NC(=O)[C@H](CC(N)=O)NC(=O)[C@H](C)NC(=O)[C@H](CC(C)C)NC(=O)[C@H](CCCNC(=N)N)NC(=O)[C@H](CCC(N)=O)NC(=O)[C@@H](NC(=O)[C@H](C)NC(=O)[C@@H]1CSSC[C@H](NC(=O)[C@@H](N)CCCCNC(=O)COCCOCCNC(=O)CC[C@H](NC(=O)CCCCCCCCCCCCCCCCCCC(=O)O)C(=O)O)C(=O)N[C@@H](CC(N)=O)C(=O)N[C@@H]([C@@H](C)O)C(=O)N[C@@H](C)C(=O)N[C@@H]([C@@H](C)O)C(=O)N1)[C@@H](C)O)C(=O)N1CCC[C@H]1C(=O)N[C@@H](CO)C(=O)N[C@@H](CO)C(=O)N[C@H](C(=O)N[C@@H](CC(N)=O)C(=O)N[C@H](C(=O)NCC(=O)N[C@@H](CO)C(=O)N[C@@H](CCCNC(=N)N)C(=O)N[C@H](C(=O)N[C@@H](Cc1ccc(O)cc1)C(N)=O)[C@@H](C)O)C(C)C)[C@@H](C)O
notes: also called compound 38
B3: N^ε1-[(4S)-4-carboxy-4-[[(4S)-4-carboxy-4-(19-carboxynonadecanoylamino)butanoyl]amino]butanoyl]-[Glu14,Arg17,Pro23,Pro34,Glu35]-h-amylin (peptide)
peptide: K([γGlu-γGlu-C20 diacid])CNTATCATQRLAEFLRHSSNNPGAILSSTNVGPETY-NH2
modifications: disulfide 2-7; N-terminus assumed
SMILES: CC[C@H](C)[C@H](NC(=O)[C@H](C)NC(=O)CNC(=O)[C@@H]1CCCN1C(=O)[C@H](CC(N)=O)NC(=O)[C@H](CC(N)=O)NC(=O)[C@H](CO)NC(=O)[C@H](CO)NC(=O)[C@H](Cc1c[nH]cn1)NC(=O)[C@H](CCCNC(=N)N)NC(=O)[C@H](CC(C)C)NC(=O)[C@H](Cc1ccccc1)NC(=O)[C@H](CCC(=O)O)NC(=O)[C@H](C)NC(=O)[C@H](CC(C)C)NC(=O)[C@H](CCCNC(=N)N)NC(=O)[C@H](CCC(N)=O)NC(=O)[C@@H](NC(=O)[C@H](C)NC(=O)[C@@H]1CSSC[C@H](NC(=O)[C@@H](N)CCCCNC(=O)CC[C@H](NC(=O)CC[C@H](NC(=O)CCCCCCCCCCCCCCCCCCC(=O)O)C(=O)O)C(=O)O)C(=O)N[C@@H](CC(N)=O)C(=O)N[C@@H]([C@@H](C)O)C(=O)N[C@@H](C)C(=O)N[C@@H]([C@@H](C)O)C(=O)N1)[C@@H](C)O)C(=O)N[C@@H](CC(C)C)C(=O)N[C@@H](CO)C(=O)N[C@@H](CO)C(=O)N[C@H](C(=O)N[C@@H](CC(N)=O)C(=O)N[C@H](C(=O)NCC(=O)N1CCC[C@H]1C(=O)N[C@@H](CCC(=O)O)C(=O)N[C@H](C(=O)N[C@@H](Cc1ccc(O)cc1)C(N)=O)[C@@H](C)O)C(C)C)[C@@H](C)O
B4: N^ε1-[(4S)-4-carboxy-4-[[(4S)-4-carboxy-4-(19-carboxynonadecanoylamino)butanoyl]amino]butanoyl]-[Ser14,Arg17,Pro21,Pro27,Pro34,Glu35]-h-amylin (peptide)
peptide: K([γGlu-γGlu-C20 diacid])CNTATCATQRLASFLRHSSPNFGAIPSSTNVGPETY-NH2
modifications: disulfide 2-7; N-terminus assumed
SMILES: CC[C@H](C)[C@H](NC(=O)[C@H](C)NC(=O)CNC(=O)[C@H](Cc1ccccc1)NC(=O)[C@H](CC(N)=O)NC(=O)[C@@H]1CCCN1C(=O)[C@H](CO)NC(=O)[C@H](CO)NC(=O)[C@H](Cc1c[nH]cn1)NC(=O)[C@H](CCCNC(=N)N)NC(=O)[C@H](CC(C)C)NC(=O)[C@H](Cc1ccccc1)NC(=O)[C@H](CO)NC(=O)[C@H](C)NC(=O)[C@H](CC(C)C)NC(=O)[C@H](CCCNC(=N)N)NC(=O)[C@H](CCC(N)=O)NC(=O)[C@@H](NC(=O)[C@H](C)NC(=O)[C@@H]1CSSC[C@H](NC(=O)[C@@H](N)CCCCNC(=O)CC[C@H](NC(=O)CC[C@H](NC(=O)CCCCCCCCCCCCCCCCCCC(=O)O)C(=O)O)C(=O)O)C(=O)N[C@@H](CC(N)=O)C(=O)N[C@@H]([C@@H](C)O)C(=O)N[C@@H](C)C(=O)N[C@@H]([C@@H](C)O)C(=O)N1)[C@@H](C)O)C(=O)N1CCC[C@H]1C(=O)N[C@@H](CO)C(=O)N[C@@H](CO)C(=O)N[C@H](C(=O)N[C@@H](CC(N)=O)C(=O)N[C@H](C(=O)NCC(=O)N1CCC[C@H]1C(=O)N[C@@H](CCC(=O)O)C(=O)N[C@H](C(=O)N[C@@H](Cc1ccc(O)cc1)C(N)=O)[C@@H](C)O)C(C)C)[C@@H](C)O
notes: also called compound 120
B5: N^ε1-[(4S)-4-carboxy-4-[[(4S)-4-carboxy-4-(19-carboxynonadecanoylamino)butanoyl]amino]butanoyl]-[Glu14,Arg17,Pro21,Pro27,Pro34,Glu35]-h-amylin (peptide)
peptide: K([γGlu-γGlu-C20 diacid])CNTATCATQRLAEFLRHSSPNFGAIPSSTNVGPETY-NH2
modifications: disulfide 2-7; N-terminus assumed
SMILES: CC[C@H](C)[C@H](NC(=O)[C@H](C)NC(=O)CNC(=O)[C@H](Cc1ccccc1)NC(=O)[C@H](CC(N)=O)NC(=O)[C@@H]1CCCN1C(=O)[C@H](CO)NC(=O)[C@H](CO)NC(=O)[C@H](Cc1c[nH]cn1)NC(=O)[C@H](CCCNC(=N)N)NC(=O)[C@H](CC(C)C)NC(=O)[C@H](Cc1ccccc1)NC(=O)[C@H](CCC(=O)O)NC(=O)[C@H](C)NC(=O)[C@H](CC(C)C)NC(=O)[C@H](CCCNC(=N)N)NC(=O)[C@H](CCC(N)=O)NC(=O)[C@@H](NC(=O)[C@H](C)NC(=O)[C@@H]1CSSC[C@H](NC(=O)[C@@H](N)CCCCNC(=O)CC[C@H](NC(=O)CC[C@H](NC(=O)CCCCCCCCCCCCCCCCCCC(=O)O)C(=O)O)C(=O)O)C(=O)N[C@@H](CC(N)=O)C(=O)N[C@@H]([C@@H](C)O)C(=O)N[C@@H](C)C(=O)N[C@@H]([C@@H](C)O)C(=O)N1)[C@@H](C)O)C(=O)N1CCC[C@H]1C(=O)N[C@@H](CO)C(=O)N[C@@H](CO)C(=O)N[C@H](C(=O)N[C@@H](CC(N)=O)C(=O)N[C@H](C(=O)NCC(=O)N1CCC[C@H]1C(=O)N[C@@H](CCC(=O)O)C(=O)N[C@H](C(=O)N[C@@H](Cc1ccc(O)cc1)C(N)=O)[C@@H](C)O)C(C)C)[C@@H](C)O
notes: synthetic peptide amide

Columns and labels:
[1] = molecular target: T1, human calcitonin receptor; assay: SPA competition against 125I-calcitonin, membranes of BHK cells with human calcitonin receptor (Assay VII)
Method in brief: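 BHK hCTR membranes 35 ng/μL + SPA beads 0.05 mg/well; buffer 50 mM Hepes pH 7.4, 1 mM CaCl2, 5 mM MgCl₂, 0.1% OA, 0.02% Tween20. 120 min, 25° C., shaking. Scintillation count; IC50 by one-site binding competition.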

[2] = molecular target: T1, human calcitonin receptor; assay: ratio of IC50 at hCTR over IC50 at hAmylin-R (SPA competition assays)
Method in brief: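 Competition binding by SPA with cell membranes (35 ng/μL) and SPA beads in 50 mM Hepes pH 7.4 with 1 mM CaCl2, 5 mM MgCl2, 0.1% OA and 0.02% Tween20. Incubated 120 min at 25 °C with shaking, then counted.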

[3] = molecular target: T2, human amylin receptor (amylin 3(a) …); assay: SPA competition binding on membranes of BHK cells with human calcitonin receptor + RAMP-3; displacement of 125I-rat amylin (Assay V)
Protocol: The binding assay was performed using scintillation proximity assay (SPA) beads (RPNQ0001) from PerkinElmer and cell membranes from the Amylin 3(a)/CRE-luc cells (as described in Assay (II)) were used. Membranes were prepared in the following way; the cells were rinsed with PBS and incubated with Versene for approximately 5 min before harvesting. The cells were flushed with PBS and the cell-suspension was centrifuged for 5 min at 1000 rpm. Cells were homogenized (ultrathurrax) in a buffer containing 20 mM Na-HEPES and 10 mM EDTA (pH 7.4) and centrifuged at 20.000 rpm for 15 min. The resulting pellet was resuspended, homogenized and centrifuged (20.000 rpm, 15 min) in a buffer containing 20 mM Na-HEPES and 0.1 mM EDTA (pH 7.4, buffer 2). The resulting pellet was resuspended in buffer 2 and protein concentration was measured (BCA protein Assay, Pierce). The homogenate was kept cold during the whole procedure. The membranes were kept at −80° C. until use. The assay was performed in a 384 well Optiplate (PerkinElmer) in a total volume of 40 ul. Membranes were mixed with SPA beads. Final concentration of membranes 35 ng/μL final and SPA beads was 0.05 mg/well. Test-compounds were dissolved in DMSO and further diluted in assay buffer (50 mM Hepes, pH 7.4, 1 mM CaCl2, 5 mM MgCl₂, 0.1% OA and 0.02% Tween20). […] The final mixture was incubated with shaking at 400 rpm for 120 min at 25° C. prior to centrifugation (1500 rpm, 10 min). Samples were analyzed on TopCounter™ (Packard). The IC₅₀ was calculated using (one site binding competition analysis) GraphPad Prism5 as a measure of receptor affinity.

[4] = molecular target: T3, human calcitonin receptor; assay: cell-based or functional assay

Binder | IC50 [1] [nM] | Ratio hCT/hAmylin binding [2] | IC50 [3] [nM] | hCTR funct. EC50 (pM) [4] [pM]
B1 | 1.86 | 13.3 | – | –
B2 | – | – | 0.249 | –
B3 | 9.29 | 7.8 | – | –
B4 | 3.44 | 45.3 | – | –
B5 | – | – | – | 2360
